Article PMC5050915, “CYP79D enzymes contribute to jasmonic acid-induced formation of aldoximes and other nitrogenous volatiles in two Erythroxylum species” (BMC Plant Biology, 2016)

Tests used:
CYP79D61 = molecular target: T1, CYP79D61 (Erythroxylum fischeri, UniProt A0A1D8QQQ4); experiment: aldoxime formation by recombinant yeast microsomes, LC-MS/MS; type: biochemical; conditions: 1 mM substrate, 1 mM NADPH, 75 mM sodium phosphate pH 7.0, 25 °C
T1 construct: complete ORF in pESC-Leu2d, Saccharomyces cerevisiae WAT11 microsomes
T1 sequence (A0A1D8QQQ4 1-531): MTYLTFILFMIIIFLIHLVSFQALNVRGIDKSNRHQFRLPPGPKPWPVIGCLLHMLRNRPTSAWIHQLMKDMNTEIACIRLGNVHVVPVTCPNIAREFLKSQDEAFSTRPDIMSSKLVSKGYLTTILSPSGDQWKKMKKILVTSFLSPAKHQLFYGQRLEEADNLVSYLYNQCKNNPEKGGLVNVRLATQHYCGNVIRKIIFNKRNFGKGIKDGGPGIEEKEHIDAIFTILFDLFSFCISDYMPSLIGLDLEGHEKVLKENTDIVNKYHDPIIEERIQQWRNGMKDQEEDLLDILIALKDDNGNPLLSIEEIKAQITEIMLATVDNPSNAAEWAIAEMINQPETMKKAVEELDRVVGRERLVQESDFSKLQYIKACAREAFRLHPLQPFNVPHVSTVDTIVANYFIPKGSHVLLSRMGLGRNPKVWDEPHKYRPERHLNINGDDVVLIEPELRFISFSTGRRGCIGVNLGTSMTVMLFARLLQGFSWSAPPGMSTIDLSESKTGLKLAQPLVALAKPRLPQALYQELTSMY

[1] = substrate: N[C@@H](Cc1c[nH]c2ccccc12)C(=O)O; experiment: as above; type: biochemical, Erythroxylum coca; conditions: 1 mM NADPH, 75 mM sodium phosphate pH 7.0, 25 °C
Description: aldoxime formation by recombinant yeast microsomes, LC-MS/MS on CYP79D63

[2] = substrate: N[C@@H](Cc1ccccc1)C(=O)O; experiment: as above; type: biochemical, Erythroxylum fischeri; conditions: 1 mM NADPH, 75 mM sodium phosphate pH 7.0, 25 °C
[3] = substrate: N[C@@H](Cc1c[nH]c2ccccc12)C(=O)O; experiment: as above; type: biochemical, Erythroxylum fischeri; conditions: 1 mM NADPH, 75 mM sodium phosphate pH 7.0, 25 °C
[4] = substrate: N[C@@H](Cc1ccc(O)cc1)C(=O)O; experiment: cells, lysate or membranes; conditions: 1 mM NADPH, 75 mM sodium phosphate pH 7.0, 25 °C
[5] = substrate: CC[C@H](C)[C@H](N)C(=O)O; experiment: cells, lysate or membranes; conditions: 1 mM NADPH, 75 mM sodium phosphate pH 7.0, 25 °C
[6] = substrate: N[C@@H](Cc1ccccc1)C(=O)O; experiment: aldoxime formation by recombinant yeast microsomes, LC-MS/MS; type: biochemical, Erythroxylum coca; conditions: 1 mM NADPH, 75 mM sodium phosphate pH 7.0, 25 °C
[7] = substrate: N[C@@H](Cc1c[nH]c2ccccc12)C(=O)O; experiment: as above; type: biochemical, Erythroxylum coca; conditions: 1 mM NADPH, 75 mM sodium phosphate pH 7.0, 25 °C; remark: listed apart in the source

**Q.** With `N[C@@H](Cc1ccccc1)C(=O)O` [L-Phe] as the molecule, how does the “aldoxime formation by recombinant yeast microsomes, LC-MS/MS” value (CYP79D61) read?
**A.** CYP79D62, CYP79D60, and CYP79D61 accepted all tested amino acids

B1: CYP79D63 (Erythroxylum coca) (protein)
chain: MTYLILILIMIISFLIHLVSFQALNVRGSGKSNRHQFQLPPGPKPWPVIGCLPQMLRNRPTFAWIHQLMKDMNTEIACIRLGSIHVIPVTCPNIAREILKSQDEAFSSRPDFMSSTLVSRGYLATTLSPPGDQWKKMRKILVTSCLSPAKHRLFYRKRLEVADNLVSYLYSQCKDNPEKGGLVNVRLATQHYCGNVIRKIVFNKRNFGKGMKDGGPGIEEKEHIDALFTILFYVFSFCISDYMPSLIGLDLEGHEKVLKENTDIVNKYHDPIIQERIRQWRNGMKDQEEDLLDILIALKDNNGNPLLSIEEIKAQITEIVLASVDNPSNAAEWAIAEMINQPKIMKKAVEELDSVVGSERLVQESDFSKLQYVKACAREAFRLHPMQPFNVPHVSTMDTTIANYFIPKGSHVLLSRMRLGRNSKVWDEPHKYRPERHLSNGDDVLLIEPELRFISFSTGRRGCIGVNLGTSMTIMLFARLLQGFNWSAPPGKSAVDLNESKIGLTLAQPLVALAKPRLPQALYQELTSCINHS
notes: complete ORF in pESC-Leu2d, Saccharomyces cerevisiae WAT11 microsomes
**Q.** Which Km [1] does the source give for B1 here?
**A.** 480 ± 50 µM

B2: CYP79D60 (Erythroxylum fischeri) (protein)
chain: MTYLILILIMIITFLIHLVSFQALNVRGSDKSNRQQFQLPPGPKPWPVIGCLLQMLRNRPTSAWIHQLMKDMNTEIACIRLGNVHVIPVTCPNIAREFLKSQDEAFSSRPDFMSNKLVSKGYLTTALSPSGDQWKKMKKILVTSFLSPAKHKLFYGKRLEEADHLVSYLYNQCKNNPEKGGLVNVRLATQHYCGNVIRKIVFNKRNFGKGMEDGGPGIEEKEHIDALFTILFYLFSFCISDYMPSLIGLDLEGHEKVLRENTDIVNKYHDPIIEERIQQWRNGMKDQEEDLLDILIALKDDNGSPLLSIEEIKAQITEIMIAAVDNPSNAAEWAIAEMINQPETMKKAVEELDRAVGRERLVQESDFSKLKYIKACAREAFRLHPMEAFNVPHVSTVDTIVANYFIPKGSHVLLSRMGIGRNPKVWDEPHKYKPERHLKNGDDVVLTEPELRFISFSTGRRGCIGVNLGTSMTVMLFARLLQGFSWSAPPGMSTIDLSESKTGLKLAQPLVALAKPRLPQALYQELTSCINHS
notes: as for B1
**Q.** With B2 as the molecule, how does the Km [2] read?
**A.** 580 ± 50 µM

**Q.** What about the Km [3] of the same molecule?
**A.** 2740 ± 110 µM

**Q.** What about the Km [4] of the same molecule?
**A.** 6090 ± 1320 µM

**Q.** And the Km [5]?
**A.** 1280 ± 250 µM

B3: CYP79D62 (Erythroxylum coca) (protein)
chain: MTYLILILIMIILVSFQALNVRCNDKSNRHQLQLPPGPKPWPVIGCLPQMLRNRPTFAWIHQLMKDMNTEIACIRLGNVHVIPVTCPNIAREFLKSQDEAFSSRPDFMSNKLVSKRYLTTALSPSGDQWKKMKKILVTSFLSPAKHQLFYGKRLEEADNLVSYLYGQCKNNPEKGGLVNVRLATRHYCGNVIRKIVFNKRNFGEGMKDGGPGIEEKEHIDAIFTILSYLFSFCISDYMPSLIGLDLEGHEKVLKENTDIVNKYHDPIIEERIQQWRNGMKDREEDLLDILIALKDDNGNPLLSIEEIKAQITEIILATVDNPSNAAEWAIAEMINQPEMMKKAVEELDRVVGRERLVQESDFVKLQYVKACAREAFRLHPLEPFNIPHVSTVDTTVANYFIPKGSHVLLSRMGLGRNPKVWDEPHKYKPERHLSNGDDVVLIEPELRFISFSTGRRGCIGVNLGTSMTVMLFARLLQGFSWSAPPGKLAINLNESKTGLALAQPLVALAKPRLPQALYQELTSCINHS
notes: as for B1
**Q.** Which results are given for B3?
**A.** Km [6]: 670 ± 70 µM; Km [7]: 1090 ± 40 µM; Km [4]: 4990 ± 460 µM; Km [5]: 3270 ± 420 µM
